According to US9976134B2, “Thermolysin variants” (Danisco US Inc., priority 2007, dated 2018):

Tests used:
[1] = Stability assay in 25% TIDE 2X detergent with DTPA (residual Abz-AGLA-Nba protease activity); assay type: physicochemical; conditions: 60 min at 32°C; variant residual AGLA activity divided by wild-type residual activity
Procedure, shortened: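 Thermolysin variant culture supernatants stressed in TIDE 2× detergent, with or without DTPA: 60 min at 32° C or 180 min at 50° C. Residual versus unstressed activity on Abz-AGLA-Nba read kinetically at 25° C (Ex 350/Em 420). Performance index is variant residual activity divided by wild-type thermolysin residual activity.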

[2] = TIDE 2X 0.78 g/l, 6 gpg, pH 8.2, 30 min at 20°C, A405; variant vs wild-type thermolysin at same protein concentration
Protocol: Thermolysin containing protease samples were obtained from filtered broth of cultures grown in microtiter plates for 3 days at 37° C. with shaking at 280 rpm under humidified aeration.
• Thermolysin containing culture supernatants (˜100-200 μg protein per ml) • TIDE® 2× (nil enzymes) detergent (P&G) • Dilution Buffer (10 mM NaCl, 0.1 mM CaCl2, 0.005% TWEEN®-80) The equipment used was a Biomek FX Robot (Beckman Coulter), a SpectraMAX MTP Reader (type 340; Molecular Devices), and an iEMS incubator/shaker (Thermo/Labsystems). MTPs were obtained from Costar (type 9017). TIDE® 2× Liquid Detergent Preparation (US Conditions):
Milli-Q water was adjusted to 6 gpg water hardness using a (Ca/Mg 3:1) hardness stock solution (282.3 g/L CaCl2.2H20, 130.1 g/L MgCl2.6H2O), 0.78 g/1 detergent TIDE® 2× was added, and the detergent solution was stirred vigorously for at least 15 minutes. Then, 5 mM HEPES was added and the pH adjusted to 8.2.
Microswatches of ¼ inch circular diameter were obtained from CFT (Vlaardingen, The Netherlands).
Two microswatches were placed vertically into each well of a 96-well microtiter plate to expose the whole surface area (i.e., not flat on the bottom of the well).
The incubator was set to 20° C. The filtered culture broth samples were tested at an appropriate concentration by dilution with a mixture of 10 mM NaCl, 0.1 mM CaCl2, 0.005% TWEEN®-80 solution. The detergent solution was prepared as described above. Then, 190 μl of detergent solution were added to each well of the MTP, containing microswatches. To this mixture, 10 μl of diluted enzyme solution were added to each well (to provide a total volume of 200 μl/well). The MTP was covered with a plate seal and placed in an incubator for 30 minutes at 20° C., with agitation at 1400 rpm (iEMS incubator). Following incubation under the appropriate conditions, 100 μl of solution from each well was removed and placed into a new MTP. Subsequently this MTP, containing 100 μl of solution/well, was read at 405 nm in a MTP-Reader. Blank controls, containing 2 microswatches/well and detergent, without the addition of thermolysin containing samples, were also included in the test.
The observed absorbance value was corrected for the blank value (obtained after incubation of microswatches in the absence of added enzyme). The resulting absorbance was a measure for the hydrolytic activity. For each sample (thermolysin or a variant) the performance index (PI) was calculated. The performance index is a comparison of the performance of the variant (actual value) and the standard thermolysin enzyme (theoretical value) at the same protein concentration. In addition, the theoretical values were calculated, using the parameters of the Langmuir equation of the standard enzyme.
C. Stability Assay in the Presence of Detergent
In this example, experiments were conducted to determine the stain removal performance of various singly substituted thermolysin (also referred to herein as Proteinase-T or PrT) variants. As described in Example 1, the stain cleaning performance of thermolysin variants was done utilizing a blood/milk/ink (BMI) microswatch assay. Briefly the cleaning performance of chosen single-substitution thermolysin variants was assessed in a TIDE® 2× microswatch assay.

[3] = Stability assay in 25% TIDE 2X detergent without DTPA (residual Abz-AGLA-Nba protease activity); assay type: physicochemical; conditions: 180 min at 50°C; variant residual AGLA activity divided by wild-type residual activity
Protocol: The stability of thermolysin and variants thereof was measured after incubation under defined conditions in the presence of 25% TIDE® 2× detergent. The initial and residual activity was determined.
MTPs were obtained from Costar (type 9017) and from Greiner (black plate, type 655076). Test Method Unstressed Conditions:
First, 20 μl thermolysin containing culture supernatant was diluted with 180 μl MES assay buffer. Then, 20 μl diluted supernatant was diluted further with 180 μl MES assay buffer. Subsequently 10 μl of this dilution was transferred into 190 μl AGLA-substrate solution in a pre-warmed plate (Greiner 655076) at 25° C. Any air bubbles present were blown away and the plate was measured according to the AGLA protease assay protocol described below.
First, 20 μl of culture supernatant was diluted with 180 μl 27.5% TIDE®+detergent solution and placed in the iEMS shaker. The plate covered with a plate seal was incubated for a total of 60 minutes at 32° C. at 900 rpm. In addition, 20 μl of culture supernatant was diluted with 180 μl 27.5% TIDE®−solution and placed in the iEMS shaker. This plate covered with a plate seal was incubated for a total of 180 minutes at 50° C. at 900 rpm.
Subsequently after the respective incubations, 20 μl of either of these solutions were diluted with 180 μl MES assay buffer and 10 μl of this dilution were diluted with 190 μl AGLA-substrate solution in a pre-warmed plate (Greiner 655076) at 25° C.
Fluorescence measurements were taken at excitation of 350 nm and emission of 420 nm. The spectrofluorometer software calculated the reaction rates (=slope) of the increase in fluorescence for each well to a linearly regressed line of (milli-) RFU/min. The ratio of the residual and initial AGLA activity was used to express the 25% TIDE® 2× stability as follows: Percentage of residual activity=[slope of stressed]*100/[slope of unstressed]
For each sample (thermolysin and variants thereof) the performance index was calculated by dividing the residual activity of the variant by the residual activity of thermolysin. The performance index compared the stability of the variant and the standard thermolysin enzyme (e.g., wild type or parental enzyme), determined under the same conditions.
In these experiments, the liberation of Abz-AG by protease cleavage of Abz-AGLA-Nba was monitored by fluorescence spectrometry (Ex. 350/Em. 420). The rate of appearance of Abz-AG was a measure of proteolytic activity.
The Abz-AGLA-Nba assay solution was prepared by adding 1 ml of the Abz-AGLA-Nba stock to 19 ml MES substrate buffer and mixed well for at least 2 minutes. Subsequently the thermolysin or variants thereof containing culture supernatants were diluted with MES assay buffer to a concentration of 1-6 μg protein per ml.
The assay was performed by adding 10 μl of diluted protease solution to each well, followed by the addition of 190 μl Abz-AGLA-Nba assay solution that was pre-equilibrated for at least 15 minutes at 25° C. The solutions were vigorously mixed, and the liberation of Abz-AG by protease cleavage of Abz-AGLA-Nba was monitored by fluorescence spectrometry at 25° C. in kinetic mode with excitation set at 350 nm and emission set at 420 nm. The rate of appearance of Abz-AG was a measure of proteolytic activity in the samples. The protease activity was expressed as RFU (relative fluorescence units·min^−1).
As described in Example 1, the stability of thermolysin variants was measured by determining the AGLA activity before and after incubation in the presence of TIDE® 2× heavy duty liquid (HDL) detergent at an elevated temperature. The tables contain the relative stability values compared to wild-type thermolysin, which is the quotient of the variant residual activity divided by the wild-type residual activity. A value greater than one indicates higher stability in the presence of detergent. […]

Molecule	PI (relative stability), 25% TIDE 2X with DTPA [1]	PI (performance index), stain removal [2]	PI (relative stability), 25% TIDE 2X without DTPA [3]
Q128I: single-substitution thermolysin variant (SEQ ID NO:3 numbering) (protein, listed as Geobacillus caldoproteolyticus) ITGTSTVGVGRGVLGDQKNINTTYSTYYYLQDNTRGNGIFTYDAKYRTTLPGSLWADADNQFFASYDAPAVDAHYYAGVTYDYYKNVHNRLSYDGNNAAIRSSVHYSQGYNNAFWNGSQMVYGDGDGITFIPLSGGIDVVAHELTHAVTDYTAGLIYQNESGAINEAISDIFGTLVEFYANKNPDWEIGEDVYTPGISGDSLRSMSDPAKYGDPDHYSKRYTGTQDNGGVHINSGIINKAAYLISQGGTHYGVSVVGIGRDKLGKIFYRALTQYLTPTSNFSQLRAAAVQSATDLYGSTSQEVASVKQAFDAVGVK	1.32	1.34	1.19
Q128M: single-substitution thermolysin variant (SEQ ID NO:3 numbering) (protein, listed as Geobacillus caldoproteolyticus) ITGTSTVGVGRGVLGDQKNINTTYSTYYYLQDNTRGNGIFTYDAKYRTTLPGSLWADADNQFFASYDAPAVDAHYYAGVTYDYYKNVHNRLSYDGNNAAIRSSVHYSQGYNNAFWNGSQMVYGDGDGMTFIPLSGGIDVVAHELTHAVTDYTAGLIYQNESGAINEAISDIFGTLVEFYANKNPDWEIGEDVYTPGISGDSLRSMSDPAKYGDPDHYSKRYTGTQDNGGVHINSGIINKAAYLISQGGTHYGVSVVGIGRDKLGKIFYRALTQYLTPTSNFSQLRAAAVQSATDLYGSTSQEVASVKQAFDAVGVK	1.06	1.10	1.09
Q128V: single-substitution thermolysin variant (SEQ ID NO:3 numbering) (protein, listed as Geobacillus caldoproteolyticus) ITGTSTVGVGRGVLGDQKNINTTYSTYYYLQDNTRGNGIFTYDAKYRTTLPGSLWADADNQFFASYDAPAVDAHYYAGVTYDYYKNVHNRLSYDGNNAAIRSSVHYSQGYNNAFWNGSQMVYGDGDGVTFIPLSGGIDVVAHELTHAVTDYTAGLIYQNESGAINEAISDIFGTLVEFYANKNPDWEIGEDVYTPGISGDSLRSMSDPAKYGDPDHYSKRYTGTQDNGGVHINSGIINKAAYLISQGGTHYGVSVVGIGRDKLGKIFYRALTQYLTPTSNFSQLRAAAVQSATDLYGSTSQEVASVKQAFDAVGVK	1.45	1.07	1.20
Q128Y: single-substitution thermolysin variant (SEQ ID NO:3 numbering) (protein, listed as Geobacillus caldoproteolyticus) ITGTSTVGVGRGVLGDQKNINTTYSTYYYLQDNTRGNGIFTYDAKYRTTLPGSLWADADNQFFASYDAPAVDAHYYAGVTYDYYKNVHNRLSYDGNNAAIRSSVHYSQGYNNAFWNGSQMVYGDGDGYTFIPLSGGIDVVAHELTHAVTDYTAGLIYQNESGAINEAISDIFGTLVEFYANKNPDWEIGEDVYTPGISGDSLRSMSDPAKYGDPDHYSKRYTGTQDNGGVHINSGIINKAAYLISQGGTHYGVSVVGIGRDKLGKIFYRALTQYLTPTSNFSQLRAAAVQSATDLYGSTSQEVASVKQAFDAVGVK	1.09	1.13	1.05
T049Q: single-substitution thermolysin variant (SEQ ID NO:3 numbering) (protein, listed as Geobacillus caldoproteolyticus) ITGTSTVGVGRGVLGDQKNINTTYSTYYYLQDNTRGNGIFTYDAKYRTQLPGSLWADADNQFFASYDAPAVDAHYYAGVTYDYYKNVHNRLSYDGNNAAIRSSVHYSQGYNNAFWNGSQMVYGDGDGQTFIPLSGGIDVVAHELTHAVTDYTAGLIYQNESGAINEAISDIFGTLVEFYANKNPDWEIGEDVYTPGISGDSLRSMSDPAKYGDPDHYSKRYTGTQDNGGVHINSGIINKAAYLISQGGTHYGVSVVGIGRDKLGKIFYRALTQYLTPTSNFSQLRAAAVQSATDLYGSTSQEVASVKQAFDAVGVK	–	1.30	1.07
T278M: single-substitution thermolysin variant (SEQ ID NO:3 numbering) (protein, listed as Geobacillus caldoproteolyticus) ITGTSTVGVGRGVLGDQKNINTTYSTYYYLQDNTRGNGIFTYDAKYRTTLPGSLWADADNQFFASYDAPAVDAHYYAGVTYDYYKNVHNRLSYDGNNAAIRSSVHYSQGYNNAFWNGSQMVYGDGDGQTFIPLSGGIDVVAHELTHAVTDYTAGLIYQNESGAINEAISDIFGTLVEFYANKNPDWEIGEDVYTPGISGDSLRSMSDPAKYGDPDHYSKRYTGTQDNGGVHINSGIINKAAYLISQGGTHYGVSVVGIGRDKLGKIFYRALTQYLTPMSNFSQLRAAAVQSATDLYGSTSQEVASVKQAFDAVGVK	1.09	1.02	–
